This note sets out measurements from patent WO2011095604A1 (dated 2011).

Where no end group is shown, it is not given here.

One test addresses T1, C2 domain of FVIII (Homo sapiens (Human), UniProt P00451 2192-2351).
T1 construct: Negative control
T1 sequence: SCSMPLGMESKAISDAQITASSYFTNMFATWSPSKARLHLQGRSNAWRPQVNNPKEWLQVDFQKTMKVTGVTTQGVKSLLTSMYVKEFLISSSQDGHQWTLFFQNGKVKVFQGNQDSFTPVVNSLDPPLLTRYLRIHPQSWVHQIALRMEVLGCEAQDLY
The experiment in a line: BLI (Octet Red), biotinylated peptide on streptavidin sensor. For orientation: In BLI a coated tip is dipped into the sample, and binding shifts an interference pattern.

The next test addresses T2, recombinant FIX (UniProt P00740 47-461).
T2 construct: Negative control; also called factor IX
The description is as above.

T2 sequence (P00740 47-461 limits assumed): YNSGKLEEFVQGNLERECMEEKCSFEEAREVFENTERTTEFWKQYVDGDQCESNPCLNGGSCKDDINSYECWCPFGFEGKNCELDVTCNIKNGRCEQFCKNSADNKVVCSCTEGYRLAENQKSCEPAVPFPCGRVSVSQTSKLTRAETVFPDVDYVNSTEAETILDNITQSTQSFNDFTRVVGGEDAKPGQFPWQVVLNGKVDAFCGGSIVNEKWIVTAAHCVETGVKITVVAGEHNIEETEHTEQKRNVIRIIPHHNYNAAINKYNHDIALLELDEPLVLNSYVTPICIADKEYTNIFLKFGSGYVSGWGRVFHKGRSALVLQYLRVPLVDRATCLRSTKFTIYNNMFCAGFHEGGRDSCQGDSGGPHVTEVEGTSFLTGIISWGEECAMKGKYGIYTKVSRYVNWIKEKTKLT

With EMMKPNYADLIMRKR (also: biotinylated (position not given here), random peptide of the Octet screening) [SEQ ID NO 10], the binding result with C2 domain of FVIII and in the test with recombinant FIX was “no binding” in each case.
Take TTWGMRIRLFERQAR (also: biotinylated (position not given here), random peptide of the Octet screening) [SEQ ID NO 2]: the binding result with C2 domain of FVIII and in the test with recombinant FIX was “no binding” in each case.
On to QRIKGLHFATSMGYA (also: biotinylated (position not given here), random peptide of the Octet screening) [SEQ ID NO 14], for which the binding result with C2 domain of FVIII and with recombinant FIX was “no binding” in each case.
Turning to NKLTSGDRPGLWFMV (also: biotinylated (position not given here), random peptide of the Octet screening) [SEQ ID NO 6], the binding result with C2 domain of FVIII and in the test with recombinant FIX was “no binding” throughout.
With WCPFGFEGKNCELDVTCNIKNGRCEQFCKNSADNKVVCS (cysteine pairing not given here; also: biotinylated (position not given here), random peptide of the Octet screening) [SEQ ID NO 23], the binding result in the test with C2 domain of FVIII and with recombinant FIX was “no binding” throughout.
For LSGKNGPWVKMIMWG (also: biotinylated (position not given here), random peptide of the Octet screening) [SEQ ID NO 11], the binding result with C2 domain of FVIII and in the test with recombinant FIX was “no binding” throughout.
As to SPWSWQRQMKKWTPQ (also: biotinylated (position not given here), random peptide of the Octet screening) [SEQ ID NO 15], the binding result with C2 domain of FVIII and in the test with recombinant FIX was “no binding” in each case.
For the molecule KKRDARTNYRYMAYS (also: biotinylated (position not given here), random peptide of the Octet screening) [SEQ ID NO 17], the binding result with C2 domain of FVIII and in the test with recombinant FIX was “no binding” throughout.
For the molecule DMFKSVRQLMMSRGR (also: biotinylated (position not given here), random peptide of the Octet screening) [SEQ ID NO 13], the binding result in the test with C2 domain of FVIII and in the test with recombinant FIX was “no binding” each time.
Take AYRPSTSREHWRRHW (also: biotinylated (position not given here), random peptide of the Octet screening) [SEQ ID NO 16]: the binding result with C2 domain of FVIII and with recombinant FIX was “no binding” each time.
For TERQMIHKIFALMSG (also: biotinylated (position not given here), random peptide of the Octet screening) [SEQ ID NO 9], the binding result in the test with C2 domain of FVIII and in the test with recombinant FIX was “no binding” in each case.
With ISRWRLLMGKKSQHD (also: biotinylated (position not given here), random peptide of the Octet screening) [SEQ ID NO 18], the binding result with C2 domain of FVIII and with recombinant FIX was “no binding” throughout.
On to EYISWEYC (also: biotinylated (position not given here), random peptide of the Octet screening) [SEQ ID NO 22], for which the binding result with C2 domain of FVIII and in the test with recombinant FIX was “no binding” throughout.
Take PIRIMIHSLIMNRPT (also: biotinylated (position not given here), random peptide of the Octet screening) [SEQ ID NO 4]: the binding result with C2 domain of FVIII and with recombinant FIX was “no binding” each time.
RVPLVDRATCLRSTKFTIYNN (also: biotinylated (position not given here), random peptide of the Octet screening) [SEQ ID NO 20]: the binding result with C2 domain of FVIII and with recombinant FIX was “no binding” each time.
IADKEYTNIFLKFGVSVLVDRATCLRSTKFTIYNN (also: biotinylated (position not given here), random peptide of the Octet screening) [SEQ ID NO 21]: the binding result with C2 domain of FVIII and in the test with recombinant FIX was “no binding” in each case.
For the molecule EPLMTMKMIRVMRKL (also: biotinylated (position not given here), random peptide of the Octet screening) [SEQ ID NO 8], the binding result with C2 domain of FVIII and in the test with recombinant FIX was “no binding” throughout.
For the molecule IADKEYTNIFLKFGSGYVS (also: biotinylated (position not given here), random peptide of the Octet screening) [SEQ ID NO 19], the binding result with C2 domain of FVIII and with recombinant FIX was “no binding” each time.
Take RDERMKLIRNFSPIM (also: biotinylated (position not given here), random peptide of the Octet screening) [SEQ ID NO 7]: the binding result with C2 domain of FVIII and with recombinant FIX was “no binding” in each case.
For RMRMYSSLRAWKESA (also: biotinylated (position not given here), random peptide of the Octet screening) [SEQ ID NO 3], the binding result with C2 domain of FVIII and with recombinant FIX was “no binding” throughout.
As for WKHHMRKAIPKYEGK (also: biotinylated (position not given here), random peptide of the Octet screening) [SEQ ID NO 12], the binding result with C2 domain of FVIII and with recombinant FIX was “no binding” in each case.
On to SPSWVRPSIMEWRMN (also: biotinylated (position not given here), random peptide of the Octet screening) [SEQ ID NO 5], for which the binding result in the test with C2 domain of FVIII and with recombinant FIX was “no binding” throughout.
